Test results taken from US20130195871A1 (AbbVie / Abbott, published 2013).

Target: T1, EGFR on the cell surface (human, UniProt P00533 25-1210)
T1 construct: whole, on cells
Assay: flow cytometry on cells, 2 ug/mL;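 note: cells stained for 30 to 60 min on ice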
Procedure: Stable cell lines overexpressing a cell-surface antigen of interest or human tumor cell lines were harvested from tissue culture flasks and resuspended in phosphate buffered saline (PBS) containing 5% fetal bovine serum (PBS/FBS). Prior to staining, human tumor cells were incubated on ice with (100 μl) human IgG at 5 μg/ml in PBS/FCS. 1-5×10⁵ cells were incubated with antibody or DVD-Ig (2 μg/mL) in PBS/FBS for 30-60 minutes on ice. […] After 30 minutes incubation on ice, cells were washed twice and resuspended in PBS/FBS. Fluorescence was measured using a Becton Dickinson FACSCalibur (Becton Dickinson, San Jose, Calif.).
The geometric mean is the n root of the multiplication product of n fluorescent signals (a1×a2×a3 . . . an). With log-transformed data the geometric mean is used to normalize the weighting of the data distribution.

B1: AB400 (antibody, V domains shown)
VH: EVQLVESGGGLVQPGGSLRLSCAASGFSLTNYGVHWVRQAPGKGLEWLGVGWSGGNTDYNTPFTSRLTINKDNSKNTVYLQMNSLRAEDTAVYYCARALTWYDYEFAYWGQGTLVTVSS
VL: DILLTQSPGTLSLSPGERATLSCRASQSIYTNIHWYQQKPGQAPRLLIKYASESISGIPDRFSGSGSGTDFTLTISRLEPEDFAVYYCQQNLNWPTTFGQGTKLEIKR
notes: parent antibody
In the case of B1, the “GEO MEAN” value is reported as 439.
